According to article PMC4807364, “Interaction between Simian Virus 40 Major Capsid Protein VP1 and Cell Surface Ganglioside GM1 Triggers Vacuole Formation” (mBio, 2016):

How the values were obtained:
[1] = target: C-terminal deletion VP1 mutant (ΔC), truncated after amino acid position 305 (pentamers) (simian virus 40) (UniProt P03087); assay: negative-stain electron microscopy; purified pentamers diluted in PBS pH 7.2 at 20 µg/ml, stained with 1% uranyl acetate, Tecnai T12; step: VP1 chains to pentamer
[2] = target: the molecule itself; assay: as above

## C-terminal deletion VP1 mutant (ΔC), truncated after amino acid position 305 (pentamers) (from UniProt P03087 1-305) (domain or fragment)
[1]
  stoichiometry N: 5

B1: full-length wild-type SV40 VP1 (pentamers) (natural protein)
chain: MAPTKRKGSCPGAAPKKPKEPVQVPKLVIKGGIEVLGVKTGVDSFTEVECFLNPQMGNPDEHQKGLSKSLAAEKQFTDDSPDKEQLPCYSVARIPLPNINEDLTCGNILMWEAVTVKTEVIGVTAMLNLHSGTQKTHENGAGKPIQGSNFHFFAVGGEPLELQGVLANYRTKYPAQTVTPKNATVDSQQMNTDHKAVLDKDNAYPVECWVPDPSKNENTRYFGTYTGGENVPPVLHITNTATTVLLDEQGVGPLCKADSLYVSAVDICGLFTNTSGTQQWKGLPRYFKITLRKRSVKNPYPISFLLSDLINRRTQRVDGQPMIGMSSQVEEVRVYEDTEELPGDPDMIRYIDEFGQTTTRMQ
notes: major capsid protein VP1 of simian virus 40, full length, wild type, in the pGEX-4T2 plasmid; The virus stocks are strain 776, but no strain is stated for the bacterial construct; The preparations held pentamers and higher-order structures; no intact VLPs were seen; also called major capsid protein VP1; wild-type VP1 pentamers
[2]
  stoichiometry N: 5
